The record followed here is US20170100454A1 (VANDERBILT UNIVERSITY, published 2017).

The target in assay [1] is GST-tagged Imp α5 ΔIBB (human) (UniProt P52294). Nature of the assay: BLI, biotinylated N50 on SA biosensors; reference is GST-tagged Imp α1 ΔIBB. In general terms: BLI is a label-free optical method that tracks binding on a fibre tip over time.
Assay [2] has the same target. The assay is described as follows: BLI (Octet RED96), biotinylated N50 on SA biosensors, GST-tagged Imp α5 ΔIBB at 50-200 nM, 2:1 model; column Imp α5 Major.
For assay [3] the target is unchanged. Nature of the assay: BLI (Octet RED96), biotinylated N50 on SA biosensors, GST-tagged Imp α5 ΔIBB at 50-200 nM, 2:1 model; column Imp α5 Minor.
The target in assay [4] is T1, GAPDH (Homo sapiens, UniProt P04406).
T1 construct: endogenous, as present in the lysate; also called cellular protein GAPDH
Nature of the assay: pull-down: biotinylated peptide in Jurkat T whole cell lysate, streptavidin-coated beads, immunoblot.

For assay [5], the target named is T2, Endogenous human importin alpha 7 (human, UniProt O60684 1-536).
T2 construct: mature; also called Imp α7
The description is as above.

The target of assay [6] is T3, Endogenous human importin beta 1 (human, UniProt Q14974 1-876).
T3 construct: mature; Endogenous protein in whole cell lysates, and in Hep-G2 cells for the functional rows; also called Imp β1; KPNB1
The assay is described as above.

The target of assay [7] is T2, Endogenous human importin alpha 7. Nature of the assay: pull-down with biotinylated peptide and SA beads from whole cell lysate, immunoblot.
The target of assay [8] is T3, Endogenous human importin beta 1. The description is as above.
The target of assay [9] is T1, GAPDH. Nature of the assay: pull-down: biotinylated peptide in Jurkat T whole cell lysate, streptavidin-coated beads, immunoblot [A]. (Immunoblotting shows a protein as a band on a membrane.)
Assay [10] has as its target T4, Endogenous human importin alpha 3 (human, UniProt O00629 2-521).
T4 construct: mature; also called Imp α3
T4 sequence (looked up): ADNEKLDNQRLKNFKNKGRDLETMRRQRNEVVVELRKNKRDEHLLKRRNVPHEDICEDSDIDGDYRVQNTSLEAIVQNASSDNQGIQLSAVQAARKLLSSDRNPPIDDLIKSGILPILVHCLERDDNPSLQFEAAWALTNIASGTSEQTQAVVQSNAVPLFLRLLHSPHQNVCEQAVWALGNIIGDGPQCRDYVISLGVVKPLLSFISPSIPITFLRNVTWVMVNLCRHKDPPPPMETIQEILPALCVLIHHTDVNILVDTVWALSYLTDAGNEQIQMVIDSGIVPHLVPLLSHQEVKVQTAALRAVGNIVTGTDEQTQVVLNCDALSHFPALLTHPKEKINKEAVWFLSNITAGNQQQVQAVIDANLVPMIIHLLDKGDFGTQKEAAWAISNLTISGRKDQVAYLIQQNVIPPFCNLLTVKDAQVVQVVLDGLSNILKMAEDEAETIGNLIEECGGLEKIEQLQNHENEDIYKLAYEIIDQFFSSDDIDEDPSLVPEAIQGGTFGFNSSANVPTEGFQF
The assay is described as follows: pull-down: biotinylated peptide in Jurkat T whole cell lysate, streptavidin-coated beads, immunoblot.

Assay [11] has as its target T4, Endogenous human importin alpha 3. The assay is described as follows: pull-down with biotinylated AR1 and SA beads from Jurkat T cell lysate, immunoblot.
Assay [12] concerns the target T5, Endogenous human importin alpha 4 (human, UniProt O00505 2-521).
T5 construct: mature; also called Imp α4
T5 sequence (looked up): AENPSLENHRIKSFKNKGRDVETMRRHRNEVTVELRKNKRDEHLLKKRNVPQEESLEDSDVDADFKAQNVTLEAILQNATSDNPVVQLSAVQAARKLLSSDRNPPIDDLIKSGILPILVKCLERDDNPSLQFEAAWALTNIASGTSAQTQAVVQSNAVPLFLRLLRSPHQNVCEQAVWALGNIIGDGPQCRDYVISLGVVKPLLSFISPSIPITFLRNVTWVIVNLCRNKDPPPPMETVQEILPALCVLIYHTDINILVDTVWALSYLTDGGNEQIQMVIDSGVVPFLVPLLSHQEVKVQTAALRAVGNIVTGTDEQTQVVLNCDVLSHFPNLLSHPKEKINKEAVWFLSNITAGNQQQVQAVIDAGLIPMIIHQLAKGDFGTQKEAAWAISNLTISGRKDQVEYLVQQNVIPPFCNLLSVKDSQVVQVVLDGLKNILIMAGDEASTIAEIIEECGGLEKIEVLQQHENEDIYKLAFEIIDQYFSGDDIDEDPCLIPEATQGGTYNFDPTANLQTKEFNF
The description is as above.

Assay [13] concerns the target T6, Endogenous human importin alpha 5 (human, UniProt P52294 1-529 at identity 1.00)).
T6 construct: Endogenous protein in whole cell lysates, and in Hep-G2 cells for the functional rows; also called Imp α5; KPNA1
The description is as above.

The target in assay [14] is T2, Endogenous human importin alpha 7. The assay is described as above.
Assay [15] addresses Endogenous human importin alpha 1 (human) (UniProt P52292). Nature of the assay: competition pull-down, 1.5 mg/mL Jurkat T cell lysate, 300 µM free N50 against biotinylated N50 on SA beads, quantitative immunoblot.
The target in assay [16] is T5, Endogenous human importin alpha 4. The description is as above.
For assay [17], the target named is T6, Endogenous human importin alpha 5. The assay is described as follows: competition pull-down at 1.5 mg/mL Jurkat T lysate protein, biotinylated N50 on streptavidin beads as competitor, quantitative immunoblot.

Positions of bridges follow the written chain, without caps; N, C: chain ends. No end group written: not given here. *: point of attachment. Biotin = O=C1N[C@H]2[C@H](CS[C@H]2CCCCC(=O)*)N1

T3 sequence (Q14974 whole entry): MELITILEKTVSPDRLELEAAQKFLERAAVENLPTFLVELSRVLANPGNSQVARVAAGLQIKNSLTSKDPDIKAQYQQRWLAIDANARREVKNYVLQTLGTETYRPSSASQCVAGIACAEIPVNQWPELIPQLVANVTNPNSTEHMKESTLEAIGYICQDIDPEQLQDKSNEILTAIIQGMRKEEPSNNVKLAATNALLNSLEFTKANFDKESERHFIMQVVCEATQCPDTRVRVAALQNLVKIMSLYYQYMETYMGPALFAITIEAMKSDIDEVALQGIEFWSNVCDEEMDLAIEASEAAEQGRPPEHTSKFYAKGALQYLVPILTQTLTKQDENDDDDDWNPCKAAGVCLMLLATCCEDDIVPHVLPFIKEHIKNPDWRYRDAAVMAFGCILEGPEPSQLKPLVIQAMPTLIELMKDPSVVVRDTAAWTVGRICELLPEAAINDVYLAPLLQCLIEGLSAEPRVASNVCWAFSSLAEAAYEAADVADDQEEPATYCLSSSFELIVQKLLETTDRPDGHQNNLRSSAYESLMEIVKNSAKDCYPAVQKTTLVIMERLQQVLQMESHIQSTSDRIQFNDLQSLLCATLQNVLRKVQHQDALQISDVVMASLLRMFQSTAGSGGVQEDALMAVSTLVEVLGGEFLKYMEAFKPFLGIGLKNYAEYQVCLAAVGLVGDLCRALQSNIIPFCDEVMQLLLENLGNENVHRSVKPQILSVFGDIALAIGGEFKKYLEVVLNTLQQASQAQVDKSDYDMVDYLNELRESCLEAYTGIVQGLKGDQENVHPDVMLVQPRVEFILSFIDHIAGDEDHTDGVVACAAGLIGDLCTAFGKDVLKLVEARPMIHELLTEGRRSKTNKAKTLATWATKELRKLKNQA
Sequence of GST-tagged Imp α5 ΔIBB (human) (P52294 101-529, stated change not applied): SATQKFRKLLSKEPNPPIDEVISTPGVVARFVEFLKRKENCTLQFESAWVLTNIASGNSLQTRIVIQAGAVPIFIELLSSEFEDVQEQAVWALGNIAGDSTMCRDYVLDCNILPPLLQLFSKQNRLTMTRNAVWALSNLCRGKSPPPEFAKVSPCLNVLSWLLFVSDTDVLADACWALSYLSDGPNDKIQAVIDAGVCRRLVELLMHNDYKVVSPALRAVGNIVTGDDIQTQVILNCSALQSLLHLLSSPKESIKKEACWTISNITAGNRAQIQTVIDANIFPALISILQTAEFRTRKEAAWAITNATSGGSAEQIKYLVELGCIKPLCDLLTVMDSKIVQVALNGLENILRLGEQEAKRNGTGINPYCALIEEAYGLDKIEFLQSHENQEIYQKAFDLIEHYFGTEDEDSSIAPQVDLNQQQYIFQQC
T1 sequence (P04406 2-335 limits assumed): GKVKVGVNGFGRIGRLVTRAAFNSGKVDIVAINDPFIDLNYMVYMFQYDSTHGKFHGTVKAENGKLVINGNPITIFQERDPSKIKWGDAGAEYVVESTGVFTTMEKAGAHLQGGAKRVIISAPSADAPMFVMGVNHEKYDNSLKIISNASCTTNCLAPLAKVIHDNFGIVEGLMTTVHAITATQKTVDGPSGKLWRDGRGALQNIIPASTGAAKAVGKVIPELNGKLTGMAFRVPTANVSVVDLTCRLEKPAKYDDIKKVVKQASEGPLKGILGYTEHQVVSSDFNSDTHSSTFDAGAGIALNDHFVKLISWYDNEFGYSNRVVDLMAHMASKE
T6 sequence (P52294 1-529 S73N): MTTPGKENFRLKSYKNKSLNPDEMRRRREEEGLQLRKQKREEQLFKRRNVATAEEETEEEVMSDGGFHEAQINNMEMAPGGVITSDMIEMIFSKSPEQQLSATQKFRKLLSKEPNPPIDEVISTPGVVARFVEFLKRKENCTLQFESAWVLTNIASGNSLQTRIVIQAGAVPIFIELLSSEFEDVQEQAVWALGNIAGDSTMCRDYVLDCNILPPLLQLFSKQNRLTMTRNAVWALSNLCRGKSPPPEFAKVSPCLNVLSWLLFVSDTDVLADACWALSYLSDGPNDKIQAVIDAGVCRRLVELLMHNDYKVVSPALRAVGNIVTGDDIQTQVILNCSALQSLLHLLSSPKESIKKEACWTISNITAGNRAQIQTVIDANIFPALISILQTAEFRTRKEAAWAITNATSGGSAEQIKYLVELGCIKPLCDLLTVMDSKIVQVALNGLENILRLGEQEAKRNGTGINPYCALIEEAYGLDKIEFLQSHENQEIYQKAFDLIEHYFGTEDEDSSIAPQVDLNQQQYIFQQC

In the case of Biotinylated N50 peptide, in assay [1], the fold maximum response against Imp α1 was over 20 fold. Moreover, the Kd in [2] is 73 nM; in assay [3], 140 nM.
Consider VELRKNKRDEHLLKRRNVPHE (also: biotinylated (position and linker not given here)) [Biotinylated AR3 peptide (auto-inhibitory region of Imp α3)], for which the binding result (in the assay with GAPDH [4]; in assay [5]; in assay [6]) was “no binding” throughout.
As for VELRKNKRDEHLLKKRNVPQE (also: biotinylated (position and linker not given here)) [Biotinylated AR4 peptide (auto-inhibitory region of Imp α4)], the binding result (in the assay with GAPDH [4]; in assay [5]; in assay [6]) was “no binding” throughout.
In the case of Biotin-GGGGGCVQRKRQKLMPC (disulfide 6-17 (inferred), also called cyclized N50) [Biotinylated cN50.1 peptide], the binding result (in assay [7]; in [8]; with GAPDH [9]) was “no binding” throughout.
With LQLRKQKREEQLFKRRNVATA (also: biotinylated (position and linker not given here)) [Biotinylated AR5 peptide (auto-inhibitory region of Imp α5)], the binding result (in the assay with GAPDH [4]; in assay [10]; in [5]; in assay [6]) was “no binding” in each case.
On to IQLRKQKREQQLFKRRNVELI (also: biotinylated (position and linker not given here)) [Biotinylated AR7 peptide (auto-inhibitory region of Imp α7)], for which the binding result (with GAPDH [4]; in assay [6]) was “no binding” each time.
VELRKAKKDDQMLKRRNVSSF (also: biotinylated (position and linker not given here)) [Biotinylated AR1 peptide (auto-inhibitory region of Imp α1)]: the binding result (in [11]; in assay [12]; in assay [13]; in [14]; in the assay with GAPDH [4]; in assay [6]) was “no binding” throughout.

B1: Unlabeled N50 peptide (peptide)
peptide: VQRKRQKLMP
notes: also called free N50; non-biotinylated N50 peptide
On to B1, for which the percent reduction of band intensity in [15] and in assay [16] was 20% each time. The “IC50 (read off the curve)” value in [17] was about 10000 nM.

In general, Kd refers to a measure of binding affinity in units of concentration. A lower Kd goes with tighter binding.
